Assay results as given in PMC4739061.

Assays:
[1] = target: FGFR1 kinase domain and tail (Homo sapiens) (UniProt P11362); settings: cited from earlier work
[2] = target: GyrB.FGFR1KD.TC, activated (incubated with ATP, autophosphorylated) (UniProt P11362); test: FRET or BRET; TR-FRET, lifetime of donor mTFP in a quartz cuvette; GyrB.FGFR1KD.TC (1 uM) tagged with FlAsH-EDT2 and mTFP.nSH2 (1 uM); 40 mM Tris-HCl pH 8.0, 20 mM MgCl2, 20 mM NaCl, 100 uM TCEP, 100 uM Na3VO4; with 50 uM ATP, ambient conditions, 30 min

decrease in donor lifetime [2] [ps]	Substance	Kd [1] [nM]
	PLCγ1 nSH2 (from UniProt P19174)	5
500	mTurquoise.nSH2 fusion protein (mTFP.nSH2) (domain or fragment)	
